According to the DeepSol protein solubility set:

Test: soluble on expression in E. coli; label from the status in PepcDB or PDB records

Sequence: MGSDKIHHHHHHMTTNKEQYKVHQEPYYQAQGREVQLYEAAYRNRLPVMVKGPTGCGKSRFVEYMAWKLNKPLITVACNEDMTASDLVGRYLLEANGTRWLDGPLTTAARIGAICYLDEVVEARQDTTVVIHPLTDHRRTLPLDKKGELIEAHPDFQLVISYNPGYQSLMKDLKQSTKQRFAAFDFDYPDAALETTILARETGLDETTAGRLVKIGGVARNLKGHGLDEGISTRLLVYAATLMKDGVDAGDACRMALVRPITDDADIRETLDHAIDATFA
- soluble on expression in E. coli: not soluble

Sequence: MQSSTEKELLTNASLTVSSDFASNLEGALPSQPITQANPRAEQTLMTTYMSSTTNQADPKTFEEQFVNLLGTFTPSQAVCNVSNVDCGTYVRGPETWSSCKLGTQAIAPNASYIQIRVQDKHSTMDRMNWKGPIEDTSPLMKSLTANFL
- soluble on expression in E. coli: not soluble

Sequence: MSKRLYQQIETLWDYLQLHQQPNVADLILVLGSNDVRVAEHAAKLYHQGLAPYVLFSGGFGRFTQGVFNHNEAETFAAIAKDAGVPEHAILLETQSTNSGENLHFSHQLLVQQARPAKRILLVQKPYMERRAYATFMQQWPESVESVQVTSPAGSFFDYLTSELTSDFVLNAMLGDFERIRDYPALGFQITQPIPEPVMQAYQALLPLKVNLEMSLEHHHHHH
- soluble on expression in E. coli: not soluble

Sequence: MNRTPSLHTKEKKGFIDMHTMWKGSISFGLVNIPIKLYAATEDKDIKLRSLHKEDHAPIKYEKVCTNCEKTLSPDEIVKGYEYVKGKYVVLTDEDLKSLKQEHEEKAVEIVDFVQLQEIDPIYFNRSYFVGPGDNGTKAYTLLREALRSTGKIGIANMTIRSKQQLAILRVYENCIVMESIHYPDEVRS
- soluble on expression in E. coli: not soluble

Sequence: MGSDKIHHHHHHMVIIHSKDLVNWTIKGHVVSDLRQISEEMNWTRMNRYGRGIWAGAIRYYQGKFYVYFGTPDEGYFMSTATDPAGPWEPLHCVKAEKGWDDCCPFFDDDGQLYFVGTHFADKYKTYLYRMTPDGKTLIENSKILINEGYGREASKLYKINGTYYHFFSEVKNGGRYIMMQRSSSITGPYLERKQLSHVQREYNEPNQGGLVEGPDRKWYFFTHHGTGDWAGRIASLLPVYWVDGWPIIGEVGQDGIGTMVWQAAKPSNEYPVRTPQSSDDFSKSVLSPQWEWNYQPRDEMWSLTERPGNLRLKAFRPLVTDNLLKAGNTLTQRCFRTNKNEVIVKMNIEGMVDGQKAGLCHYSKSYAMVGVRQSGKDRNLEFQTNKEKITGPAIKGNKVWIKSVWGLDGKSQFSYSTDGRKFTPFGEVYQLEWGYYRGSRIGIYCFNNIADAGYIDVDEFIYLY
- soluble on expression in E. coli: not soluble

Sequence: MSKCPTVRARAIDCKQGAVRAVRYNVDGNYCVTCGSDKTVKLWNPLKSSLLKTYSGTGNEVLDAASSSDNSQIAAGGADRACTVFDVETGKQLRRWRTHGAQVNAVAFNEESSVVFSGSMDCTMQAFDCRSRSEKPIQIFNESTDGILSIDVNGHEIVAGSADGNYRVYSIRDGNMTVDYMGDSVNSVSFTPDSNCLLAGVMGGIVRLIDKSSGKLLASYKGHQNTEYKLDCRVLQSIEHVASGSEDGFVYVYSLLDSHIVSKLEHPSKVIHSLTAHPKKERLMTAAGQMIYLWVAEDDAEVLGE
- soluble on expression in E. coli: not soluble

Sequence: MAHHHHHHMSRLLKHYGSCKTAFFCCDIQEKFMGRIANSANCVFVANRFAGLHTALGTAHSVYIVTEQYPKGLGATSADIRLPPDAHVFSKKRFAMLVPQVMPLVDLPEVEQVVLWGFETHVCILQTAAALLDMKKKVVIAVDGCGSQSQGDHCTAIQLMQSWSGDGCYISTSESILMQLLKDASDPVFKTIAPLMKQTHPIRI
- soluble on expression in E. coli: soluble

Sequence: MGSDKIHHHHHHMPKMGELTLTSVDEFDFRLLIKALGKGEKGSRALTFDEACLLLEGFAKGKATRAQMASAMMLMRVRGETTEEISGMVAGLRRTVDKDWHSLEVDIDWPVYAGKREQLPWLLLVAKLLAKQGVRVMLHGDSQALPHRRHVESCLASLNIACCTTPQMAKAALHSDNIVYVCAGDLAPVLDECRQLHQELGLRSLIQTAARCMNPTNAPISLRSYFHPGLDTVHQGICEILFEKSEYHAGSVAIFKGLQGETECNPRVATTITVVNGQTDNIAVSSLSIPTLLEGFSGAKVGQAELSSDILALLWREQEPFSADALTTLMSRTMIEQALSSMTATLAAVLLLLSRKSAMTEPNTTAIITTEQAVNLSQQCWTNRFNSTDCPLKQWRNRELLCAV
- soluble on expression in E. coli: not soluble

Sequence: MSDVAETVVAQEPEVVEPVEEKPTETGSDDVVVIDEKTSEQNGEKTEETQAEATEEKNETEAEEADKDKAVENGEAKDTNGNDRKRVSSAHEEAPVADAEEDAPLTKKSKVEDEVDVAASGDAPAVAAE
- soluble on expression in E. coli: soluble

Sequence: MPGVEPYEPLQLMGRDVYIREGCVGCHSQQVRTLQAEVQRYGPYSVAGESVFDHPFLWGSKRTGPDLARVGERYSDEWHRIHLRDPRAVVPESNMPAYPWLQHADLTGQNVAQRMQALRRLGVPYTDEAIAAAPAAIAGKTEEDALVAYLQALG
- soluble on expression in E. coli: not soluble

Sequence: GSHMASMTGGQQMGRGSMTQDEMKKAAGWAALKYVEKGSIVGVGTGSTVNHFIDALGTMSEEIKGAVSSSVASTEKLEALGIKIFDCNEVASLDIYVDGADEINADREMIKGGGAALTREKIVAAIADKFICIVDGTKAVDVLGTFPLPVEVIPMARSYVARQLVKLGGDPCYREGVITDNGNVILDVYGMKITNPKQLEDQINAIPGVVTVGLFAHRGADVVITGTPEGAKIEE
- soluble on expression in E. coli: soluble

Sequence: MNKLLTSKSEIIERKIRYDSTTVEHTCLLLEKQLRSIVLFHEVQYSFTMNTHDSSLTIPKGSYTIAYYWEDRPYNLYIWRDKDGMYVGSYFNVVKNTQITDELVSFEDLIIDILVLPSGEYFILDEDELPESLEEFEDGYVNEALHVLEEIIQKTLPQMIVETERVRLN
- soluble on expression in E. coli: not soluble

Sequence: MRVSGSASSQDIISRINSKNINNNDSNEVKRIKDALCIESKERILYPQNLSRDNLKQMARYVNNTYVHYSGNCVLLSACLHYNIHHRQDILSSKNTASPTVGLDSAIVDKIIFGHELNQSYCLNSIDEVEKEILNRYDIKRESSFIISAENYIAPIIGECRHDFNAVVICEYDKKPYVQFIDSWKTSNILPSLQEIKKHFSSSGEFYVRAYDEKHD
- soluble on expression in E. coli: not soluble

Sequence: MSLAEQIEFDQAHLTLQEITEALDNGRFVHVRRQLQDMEPEDIAHLLEASPRKAREVLWQLTDPEDYGEILDELNEDVKDALVSKMAPEKLAEATEGMDIDDVAYVLRSLPDDVSREVLSQMDAADRMRVETALSYPEDTAGGLMNTDVITIRADVDVDVVLRYLRMKGELPEATDALYVIDDESKLIGHLSLVTLLTTQPDVPVSEVMDDADEAIKVDMKDSDIANLFERRNWVSAPVVDENQHLVGRITIDDVVDIIREDAEHSMMSMAGMDDDEDTFAPEGHHHHHH
- soluble on expression in E. coli: soluble

Sequence: MSLKVFQFKDWAVACDNIRHCEANGTQAGDGDNPVSLLLSRDAGPGSRLSAQLDVDDPDGDKVGKLTLKVGRIKWTGIDAEQAFSDAQTTQLLAAMLDADEVALADGKREWTLSLAGLKAALLKMDDVQGRVGTVGALVKKGGKPESAAPAAQPAPLLVPLAPPAARPGDQKLLPAILKQLRAVDKACWDELPDAEHPDVQLYRLSASQVLVLRECGRGAYQGSYKAWTSGDAPPFHPREVPLRGSDGKETFLMNASFDKGELSSYAKGRGIGDCGSGASWAWTGKDFKLMSAQEAPQCRGIAGGVSLRTWVTRQKEGHHHHHH
- soluble on expression in E. coli: soluble

Sequence: DYVGGCLDFRPEEGIFRIARDMFTEPELFDLEMELIFEKNWIYACHESELARPHDFVTLRAGRQPLIVTRDGNGQLHALVNACQHRGATLVRVGKGNQSTFTCPFHAWCYKNDGRLVKVKAPGEYPEGFDKATRGLKKARIQSYRGFVFVSLDVAGEDDLVDFLGDARVFLDMLVAQSPSGELEVLPGTSTYTYEGNWKLQNENGLDGYHVSTVHYNYVATVQHRQQVEAERGGVAATLDYSKLGAGDAATDDGWFSFANGHSVLFSEMPNPAVRPGYASVMPRLVAEYGQARAEWMMHRLRNLNLYPSLFVIDQISSQLRIVRPLAWNRTEIVSQCIGVKGESDADRENRIRQFEDFFNVSGMGTPDDLVEFREAQRGFQARLERWSDISRGHGKWLEGATPNSQALGIAPLLTGTEITHEGLYVNQHAHWRRFLLDGLERLALRA
- soluble on expression in E. coli: not soluble

Sequence: MSQNHVIELANTLKQRPIVCDYTGGRFRLTNEGLTYIGIDRDGTPLPPRWICAPLHIVAKTRDAQSGEWGRLLEWQDDDGITHQWAMPLALLQGDASDVRRELARLGLSISPHRTARDLLASYLQVFPVDARARCVDKLGWHGDVFVTASQCIGQSTEKIVFQNTNAIEPAMSIKGSVDKWRDSIGRLASGNSRLVFAISVALAPVLAKIVGEDSGGFHFRGASSSGKSTALSLAASVWGNPQSYCRLWRSTTNGLEGLAALHNDGLLILDELSQMDPREAGEAAYLLANGQGKTRASRTGTVRQSSRWSLFFLSAGEESLTALMAKSGQRINAGQEIRLADIEADAGCQMGIFETIHDQLSPASMALSLKKYSSGYHGAIGRAWLNQVVANRQTISRFITDTIQSFVDIVIQPDATGQIIRVARRFALVAAAGELASQFGLTGWKKGESFHAAKTCFIAWQDAFGVDGHREDRAIMAQVRAFFESHGASRFDNVNSPNNDKILNRAGFYHTDGEGFRIYMVLTETYKNELCKGFDQRTVTRVLLQAGWLKPASDGKLEHHHHHH
- soluble on expression in E. coli: not soluble

Sequence: MGSDKIHHHHHHMSNVDHAEIAKFEALAHRWWDRESEFKPLHDINPLRVNWIDERAGLAGKKVLDIGCGGGILSEAMAQRGASVTGIDMGEAPLAVARLHQLESGVAVDYRQITAEQMAEEMPGQFDVVTCLEMLEHVPDPASVIRACHRLVKPGGQVFLSTINRNPKAYLFAVIGAEYILQLLPRGTHDFRKFIRPSELGAWSREAGLEVKDIIGLTYNPLTKHYKLANDVDVNYMVQTKREA
- soluble on expression in E. coli: not soluble

Sequence: MGSSHHHHHHSSGLVPRGSHMALGSGVVPFENLQIEEGIITDAEVARFDNIRQGLDFGYGPDPLAFVRWHYDKRKNRIYAIDELVDHKVSLKRTADFVRKNKYESARIIADSSEPRSIDALKLEHGINRIEGAKKGPDSVEHGERWLDELDAIVIDPLRTPNIAREFENIDYQTDKNGDPIPRLEDKDNHTIDATRYAFERDMKKGGVSLWG
- soluble on expression in E. coli: soluble

Sequence: VADVVPLDHNNRILVSQGLKRMRSGKMRPGIRALFEVARRDWRKAQPFDMGFALGPRINAAGRLDDMSVGIACLLARDDSEAQELAAQLNNLNIERREIEQSMLQDALNDFPETLPSGQMTLVAYRDDFHQGVVGIV
- soluble on expression in E. coli: not soluble

Sequence: MKDLVDTTEMYLRTIYELEEEGVTPLRARIAERLEQSGPTVSQTVARMERDGLVVVASDRSLQMTPTGRTLATAVMRKHRLAERLLTDIIGLDINKVHDEASRWEHVMSDEVERRLVKVLKDVSRSPFGNPIPGLDELGVGNSDAAAPGTRVIDAATSMPRKVRIVQINEIFQVETDQFTQLLDADIRVGSEVEIVDRDGHITLSHNGKDVELLDDLAHTIRIEEL
- soluble on expression in E. coli: soluble

Sequence: SNAMIYPYKEKKPKIASSAFIADYVTITGDVYVGEESSIWFNTVIRGDVSPTIIGDRVNVQDQCTLHQSPQYPLILEDDVTVGHQVILHSCHIKKDALIGMGSIILDGAEIGEGAFIGAGSLVSQGKKIPPNTLAFGRPAKVIRELTAEDRKDMERIRTQYVEKGQYYKSLQK
- soluble on expression in E. coli: soluble
